Publication PMC8533776

Molecular target: enhanced green fluorescent protein (EGFP) [GFP: P42212]
Assay: ELISA; EGFP coated at 100 ng/well in PBS overnight at 4 °C, blocked with 3% BSA; threefold serial dilutions of the binders, 37 °C for 1.5 h; detection by HRP-conjugated anti-Flag antibody, ABTS, OD405

αEGFP TRIMbody (RBCC-LaG16-LaG2)
EC50: 0.63 nM
